From paper PMC6429962 (Cell reports, 2019)

Biological target: T1, myc-tagged xFZD8 CRD (cysteine-rich domain of Xenopus Frizzled-8) (Xenopus, UniProt O93274 24-144)
T1 sequence (looked up): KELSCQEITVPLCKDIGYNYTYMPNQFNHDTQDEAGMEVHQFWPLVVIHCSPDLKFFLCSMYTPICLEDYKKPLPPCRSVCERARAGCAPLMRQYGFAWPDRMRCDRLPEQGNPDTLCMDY
Assay: co-IP

B1: human Wnt3a lacking the acylation site (hWnt3a^S209A) (ligand, UniProt P56704 19-352, looked up)
chain: SYPIWWSLAVGPQYSSLGSQPILCASIPGLVPKQLRFCRNYVEIMPSVAEGIKIGIQECQHQFRGRRWNCTTVHDSLAIFGPVLDKATRESAFVHAIASAGVAFAVTRSCAEGTAAICGCSSRHQGSPGKGWKWGGCSEDIEFGGMVSREFADARENRPDARSAMNRHNNEAGRQAIASHMHLKCKCHGLAGSCEVKTCWWSQPDFRAIGDFLKDKYDSASEMVVEKHRESRGWVETLRPRYTYFKVPTERDLVYYEASPNFCEPNPETGSFGTRDRTCNVSSHGIDGCDLLCCGRGHNARAERRREKCRCVFHWCCYVSCQECTRVYDVHTCK
fold reduction of apparent CRD binding strength against the wild type: ~10 fold

B2: wild-type Xenopus Wnt8 (xWnt8^WT) (ligand, UniProt P28026 23-358, looked up)
chain: AWSVNNFLMTGPKAYLTYSASVAVGAQNGIEECKYQFAWERWNCPESTLQLATHNGLRSATRETSFVHAISSAGVMYTLTRNCSMGDFDNCGCDDSRNGRIGGRGWVWGGCSDNAEFGERISKLFVDGLETGQDARALMNLHNNEAGRLAVKETMKRTCKCHGISGSCSIQTCWLQLAEFRDIGNHLKIKHDQALKLEMDKRKMRSGNSADNRGAIADAFSSVAGSELIFLEDSPDYCLKNISLGLQGTEGRECLQSGKNLSQWERRSCKRLCTDCGLRVEEKKTEIISSCNCKFHWCCTVKCEQCKQVVIKHFCARRERDSNMLNTKRKNRGHRR
modifications: acylation site S187 (palmitoleoyl chain), as the paper says of the wild type
fold more efficient co-immunoprecipitation than xWnt8^S187A: ~10 fold
